Data from publication PMC6848142.

Tested on: KRAS wild type
Assay: MST
Conditions: MST: labeled protein 20 nM final in PBS, RNA diluted in deionized water and mixed 1:1; RNA folded in TE (70 C 5 min, then ice 15 min); pH and assay temperature …

| Substance | Kd |
| --- | --- |
| SNORD50A | 140 nM |
| SNORD50B | 122 nM |
